Laboratory results from patent US20230159662A1 (Kyowa Kirin, published 2023).

Molecular target: human CD16a (Val type) stably expressed on NK-92 cells (NK-92/CD16 transfectant) (human, UniProt P08637 17-254)
Test: cell-based or functional assay

Chain of human CD16a (Val type) stably expressed on NK-92 cells (NK-92/CD16 transfectant) (P08637 17-254 F176V): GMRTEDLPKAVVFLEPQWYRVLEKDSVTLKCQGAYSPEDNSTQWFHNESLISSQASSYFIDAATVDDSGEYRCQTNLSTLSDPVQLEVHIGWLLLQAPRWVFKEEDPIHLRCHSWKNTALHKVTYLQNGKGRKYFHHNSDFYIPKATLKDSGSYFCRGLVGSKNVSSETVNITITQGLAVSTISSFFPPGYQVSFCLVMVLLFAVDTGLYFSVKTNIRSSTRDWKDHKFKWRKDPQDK

| relative ADCC activity (AAA = 100) | Binder |
| --- | --- |
| 175 relative, AAA at 0.1 µg/mL = 100 | human IgG1 anti-human CCR4 antibody (KM2160), S298A/E333A/K334A (AAA)/P247L/N421K (antibody) heavy: EVQLVESGGDLMKPGGSLKISCAASGFIFSNYGMSWVRQTPDMRLEWVATISSASTYSYYPDSVKGRFTISRDNAENSLYLQMNSLRSEDTGIYYCGRHSDGNFAFGYWGRGTLVTVSAASTKGPSVFPLAPSSKSTSGGTAALGCLVKDYFPEPVTVSWNSGALTSGVHTFPAVLQSSGLYSLSSVVTVPSSSLGTQTYICNVNHKPSNTKVDKKVEPKSCDKTHTCPPCPAPELLGGPSVFLFPPKLKDTLMISRTPEVTCVVVDVSHEDPEVKFNWYVDGVEVHNAKTKPREEQYNATYRVVSVLTVLHQDWLNGKEYKCKVSNKALPAPIAATISKAKGQPREPQVYTLPPSRDELTKNQVSLTCLVKGFYPSDIAVEWESNGQPENNYKTTPPVLDSDGSFFLYSKLTVDKSRWQQGKVFSCSVMHEALHNHYTQKSLSLSPGK light: DVLMTQTPLSLPVSLGDQASISCRSSRNIVHINGDTYLEWYLQRPGQSPKLLIYKVSNRFSGVPDRFSGSGSGTDFTLKISRVEAEDLGVYYCFQGSLLPWTFGGGTRLEIRRTVAAPSVFIFPPSDEQLKSGTASVVCLLNNFYPREAKVQWKVDNALQSGNSQESVTEQDSKDSTYSLSSTLTLSKADYEKHKVYACEVTHQGLSSPVTKSFNRGEC |
| 36 relative, AAA at 0.1 µg/mL = 100 | human IgG1 anti-human CCR4 antibody (KM2160), S298A/E333A/K334A (AAA)/A339T (antibody) heavy: EVQLVESGGDLMKPGGSLKISCAASGFIFSNYGMSWVRQTPDMRLEWVATISSASTYSYYPDSVKGRFTISRDNAENSLYLQMNSLRSEDTGIYYCGRHSDGNFAFGYWGRGTLVTVSAASTKGPSVFPLAPSSKSTSGGTAALGCLVKDYFPEPVTVSWNSGALTSGVHTFPAVLQSSGLYSLSSVVTVPSSSLGTQTYICNVNHKPSNTKVDKKVEPKSCDKTHTCPPCPAPELLGGPSVFLFPPKPKDTLMISRTPEVTCVVVDVSHEDPEVKFNWYVDGVEVHNAKTKPREEQYNATYRVVSVLTVLHQDWLNGKEYKCKVSNKALPAPIAATISKTKGQPREPQVYTLPPSRDELTKNQVSLTCLVKGFYPSDIAVEWESNGQPENNYKTTPPVLDSDGSFFLYSKLTVDKSRWQQGNVFSCSVMHEALHNHYTQKSLSLSPGK light: DVLMTQTPLSLPVSLGDQASISCRSSRNIVHINGDTYLEWYLQRPGQSPKLLIYKVSNRFSGVPDRFSGSGSGTDFTLKISRVEAEDLGVYYCFQGSLLPWTFGGGTRLEIRRTVAAPSVFIFPPSDEQLKSGTASVVCLLNNFYPREAKVQWKVDNALQSGNSQESVTEQDSKDSTYSLSSTLTLSKADYEKHKVYACEVTHQGLSSPVTKSFNRGEC |
| 119 relative, AAA at 0.1 µg/mL = 100 | human IgG1 anti-human CCR4 antibody (KM2160), S298A/E333A/K334A (AAA)/S239D/I332E (antibody) heavy: EVQLVESGGDLMKPGGSLKISCAASGFIFSNYGMSWVRQTPDMRLEWVATISSASTYSYYPDSVKGRFTISRDNAENSLYLQMNSLRSEDTGIYYCGRHSDGNFAFGYWGRGTLVTVSAASTKGPSVFPLAPSSKSTSGGTAALGCLVKDYFPEPVTVSWNSGALTSGVHTFPAVLQSSGLYSLSSVVTVPSSSLGTQTYICNVNHKPSNTKVDKKVEPKSCDKTHTCPPCPAPELLGGPDVFLFPPKPKDTLMISRTPEVTCVVVDVSHEDPEVKFNWYVDGVEVHNAKTKPREEQYNATYRVVSVLTVLHQDWLNGKEYKCKVSNKALPAPEAATISKAKGQPREPQVYTLPPSRDELTKNQVSLTCLVKGFYPSDIAVEWESNGQPENNYKTTPPVLDSDGSFFLYSKLTVDKSRWQQGNVFSCSVMHEALHNHYTQKSLSLSPGK light: DVLMTQTPLSLPVSLGDQASISCRSSRNIVHINGDTYLEWYLQRPGQSPKLLIYKVSNRFSGVPDRFSGSGSGTDFTLKISRVEAEDLGVYYCFQGSLLPWTFGGGTRLEIRRTVAAPSVFIFPPSDEQLKSGTASVVCLLNNFYPREAKVQWKVDNALQSGNSQESVTEQDSKDSTYSLSSTLTLSKADYEKHKVYACEVTHQGLSSPVTKSFNRGEC |
| 163 relative, AAA at 0.1 µg/mL = 100 | human IgG1 anti-human CCR4 antibody (KM2160), S298A/E333A/R292L/K334E (antibody) heavy: EVQLVESGGDLMKPGGSLKISCAASGFIFSNYGMSWVRQTPDMRLEWVATISSASTYSYYPDSVKGRFTISRDNAENSLYLQMNSLRSEDTGIYYCGRHSDGNFAFGYWGRGTLVTVSAASTKGPSVFPLAPSSKSTSGGTAALGCLVKDYFPEPVTVSWNSGALTSGVHTFPAVLQSSGLYSLSSVVTVPSSSLGTQTYICNVNHKPSNTKVDKKVEPKSCDKTHTCPPCPAPELLGGPSVFLFPPKPKDTLMISRTPEVTCVVVDVSHEDPEVKFNWYVDGVEVHNAKTKPLEEQYNATYRVVSVLTVLHQDWLNGKEYKCKVSNKALPAPIAETISKAKGQPREPQVYTLPPSRDELTKNQVSLTCLVKGFYPSDIAVEWESNGQPENNYKTTPPVLDSDGSFFLYSKLTVDKSRWQQGNVFSCSVMHEALHNHYTQKSLSLSPGK light: DVLMTQTPLSLPVSLGDQASISCRSSRNIVHINGDTYLEWYLQRPGQSPKLLIYKVSNRFSGVPDRFSGSGSGTDFTLKISRVEAEDLGVYYCFQGSLLPWTFGGGTRLEIRRTVAAPSVFIFPPSDEQLKSGTASVVCLLNNFYPREAKVQWKVDNALQSGNSQESVTEQDSKDSTYSLSSTLTLSKADYEKHKVYACEVTHQGLSSPVTKSFNRGEC |
| 5 relative, AAA at 0.1 µg/mL = 100 | human IgG1 anti-human CCR4 antibody (KM2160), S298A/E333A/K334A (AAA)/P329R (antibody) heavy: EVQLVESGGDLMKPGGSLKISCAASGFIFSNYGMSWVRQTPDMRLEWVATISSASTYSYYPDSVKGRFTISRDNAENSLYLQMNSLRSEDTGIYYCGRHSDGNFAFGYWGRGTLVTVSAASTKGPSVFPLAPSSKSTSGGTAALGCLVKDYFPEPVTVSWNSGALTSGVHTFPAVLQSSGLYSLSSVVTVPSSSLGTQTYICNVNHKPSNTKVDKKVEPKSCDKTHTCPPCPAPELLGGPSVFLFPPKPKDTLMISRTPEVTCVVVDVSHEDPEVKFNWYVDGVEVHNAKTKPREEQYNATYRVVSVLTVLHQDWLNGKEYKCKVSNKALRAPIAATISKAKGQPREPQVYTLPPSRDELTKNQVSLTCLVKGFYPSDIAVEWESNGQPENNYKTTPPVLDSDGSFFLYSKLTVDKSRWQQGNVFSCSVMHEALHNHYTQKSLSLSPGK light: DVLMTQTPLSLPVSLGDQASISCRSSRNIVHINGDTYLEWYLQRPGQSPKLLIYKVSNRFSGVPDRFSGSGSGTDFTLKISRVEAEDLGVYYCFQGSLLPWTFGGGTRLEIRRTVAAPSVFIFPPSDEQLKSGTASVVCLLNNFYPREAKVQWKVDNALQSGNSQESVTEQDSKDSTYSLSSTLTLSKADYEKHKVYACEVTHQGLSSPVTKSFNRGEC |
| 51 relative, AAA at 0.1 µg/mL = 100 | human IgG1 anti-human CCR4 antibody (KM2160), S298A/E333A/K334A (AAA)/V379M (antibody) heavy: EVQLVESGGDLMKPGGSLKISCAASGFIFSNYGMSWVRQTPDMRLEWVATISSASTYSYYPDSVKGRFTISRDNAENSLYLQMNSLRSEDTGIYYCGRHSDGNFAFGYWGRGTLVTVSAASTKGPSVFPLAPSSKSTSGGTAALGCLVKDYFPEPVTVSWNSGALTSGVHTFPAVLQSSGLYSLSSVVTVPSSSLGTQTYICNVNHKPSNTKVDKKVEPKSCDKTHTCPPCPAPELLGGPSVFLFPPKPKDTLMISRTPEVTCVVVDVSHEDPEVKFNWYVDGVEVHNAKTKPREEQYNATYRVVSVLTVLHQDWLNGKEYKCKVSNKALPAPIAATISKAKGQPREPQVYTLPPSRDELTKNQVSLTCLVKGFYPSDIAMEWESNGQPENNYKTTPPVLDSDGSFFLYSKLTVDKSRWQQGNVFSCSVMHEALHNHYTQKSLSLSPGK light: DVLMTQTPLSLPVSLGDQASISCRSSRNIVHINGDTYLEWYLQRPGQSPKLLIYKVSNRFSGVPDRFSGSGSGTDFTLKISRVEAEDLGVYYCFQGSLLPWTFGGGTRLEIRRTVAAPSVFIFPPSDEQLKSGTASVVCLLNNFYPREAKVQWKVDNALQSGNSQESVTEQDSKDSTYSLSSTLTLSKADYEKHKVYACEVTHQGLSSPVTKSFNRGEC |
| 114 relative, AAA at 0.1 µg/mL = 100 | human IgG1 anti-human CCR4 antibody (KM2160), S298A/E333A/K334E (antibody) heavy: EVQLVESGGDLMKPGGSLKISCAASGFIFSNYGMSWVRQTPDMRLEWVATISSASTYSYYPDSVKGRFTISRDNAENSLYLQMNSLRSEDTGIYYCGRHSDGNFAFGYWGRGTLVTVSAASTKGPSVFPLAPSSKSTSGGTAALGCLVKDYFPEPVTVSWNSGALTSGVHTFPAVLQSSGLYSLSSVVTVPSSSLGTQTYICNVNHKPSNTKVDKKVEPKSCDKTHTCPPCPAPELLGGPSVFLFPPKPKDTLMISRTPEVTCVVVDVSHEDPEVKFNWYVDGVEVHNAKTKPREEQYNATYRVVSVLTVLHQDWLNGKEYKCKVSNKALPAPIAETISKAKGQPREPQVYTLPPSRDELTKNQVSLTCLVKGFYPSDIAVEWESNGQPENNYKTTPPVLDSDGSFFLYSKLTVDKSRWQQGNVFSCSVMHEALHNHYTQKSLSLSPGK light: DVLMTQTPLSLPVSLGDQASISCRSSRNIVHINGDTYLEWYLQRPGQSPKLLIYKVSNRFSGVPDRFSGSGSGTDFTLKISRVEAEDLGVYYCFQGSLLPWTFGGGTRLEIRRTVAAPSVFIFPPSDEQLKSGTASVVCLLNNFYPREAKVQWKVDNALQSGNSQESVTEQDSKDSTYSLSSTLTLSKADYEKHKVYACEVTHQGLSSPVTKSFNRGEC |
| 70 relative, AAA at 0.1 µg/mL = 100 | human IgG1 anti-human CCR4 antibody (KM2160), S298A/E333A/K334A (AAA)/F372Y (antibody) heavy: EVQLVESGGDLMKPGGSLKISCAASGFIFSNYGMSWVRQTPDMRLEWVATISSASTYSYYPDSVKGRFTISRDNAENSLYLQMNSLRSEDTGIYYCGRHSDGNFAFGYWGRGTLVTVSAASTKGPSVFPLAPSSKSTSGGTAALGCLVKDYFPEPVTVSWNSGALTSGVHTFPAVLQSSGLYSLSSVVTVPSSSLGTQTYICNVNHKPSNTKVDKKVEPKSCDKTHTCPPCPAPELLGGPSVFLFPPKPKDTLMISRTPEVTCVVVDVSHEDPEVKFNWYVDGVEVHNAKTKPREEQYNATYRVVSVLTVLHQDWLNGKEYKCKVSNKALPAPIAATISKAKGQPREPQVYTLPPSRDELTKNQVSLTCLVKGYYPSDIAVEWESNGQPENNYKTTPPVLDSDGSFFLYSKLTVDKSRWQQGNVFSCSVMHEALHNHYTQKSLSLSPGK light: DVLMTQTPLSLPVSLGDQASISCRSSRNIVHINGDTYLEWYLQRPGQSPKLLIYKVSNRFSGVPDRFSGSGSGTDFTLKISRVEAEDLGVYYCFQGSLLPWTFGGGTRLEIRRTVAAPSVFIFPPSDEQLKSGTASVVCLLNNFYPREAKVQWKVDNALQSGNSQESVTEQDSKDSTYSLSSTLTLSKADYEKHKVYACEVTHQGLSSPVTKSFNRGEC |
| 96 relative, AAA at 0.1 µg/mL = 100 | human IgG1 anti-human CCR4 antibody (KM2160), S298A/E333A/K334A (AAA)/A330F (antibody) heavy: EVQLVESGGDLMKPGGSLKISCAASGFIFSNYGMSWVRQTPDMRLEWVATISSASTYSYYPDSVKGRFTISRDNAENSLYLQMNSLRSEDTGIYYCGRHSDGNFAFGYWGRGTLVTVSAASTKGPSVFPLAPSSKSTSGGTAALGCLVKDYFPEPVTVSWNSGALTSGVHTFPAVLQSSGLYSLSSVVTVPSSSLGTQTYICNVNHKPSNTKVDKKVEPKSCDKTHTCPPCPAPELLGGPSVFLFPPKPKDTLMISRTPEVTCVVVDVSHEDPEVKFNWYVDGVEVHNAKTKPREEQYNATYRVVSVLTVLHQDWLNGKEYKCKVSNKALPFPIAATISKAKGQPREPQVYTLPPSRDELTKNQVSLTCLVKGFYPSDIAVEWESNGQPENNYKTTPPVLDSDGSFFLYSKLTVDKSRWQQGNVFSCSVMHEALHNHYTQKSLSLSPGK light: DVLMTQTPLSLPVSLGDQASISCRSSRNIVHINGDTYLEWYLQRPGQSPKLLIYKVSNRFSGVPDRFSGSGSGTDFTLKISRVEAEDLGVYYCFQGSLLPWTFGGGTRLEIRRTVAAPSVFIFPPSDEQLKSGTASVVCLLNNFYPREAKVQWKVDNALQSGNSQESVTEQDSKDSTYSLSSTLTLSKADYEKHKVYACEVTHQGLSSPVTKSFNRGEC |
